Data on 37 sequences can be found in the supplement of paper PMC7877785.

The series can be described thus: self-splicing fitness, log relative to wild type (ln ratio); higher = more splicing; Tetrahymena group I intron in knt gene, E. coli kanamycin selection, DiMSum; sequences stand for … in CUCUCU…GGAGGGAAAAGUUAUCAGGCAUGCACCUGGUAGCUAGUCUUUAAACCAAUAGAUUGCAUCGGUUUAAAAGGCAAGACCGUCAAAUUGCGGGAAAGGGGUCAACAGCCGUUCAGUACCAAGUCUCAGGGGAAACUUUGAGAUGGCCUUGCAAAGGGUAUGGUAAUAAGCUGACGGACAUGGUCCUAACCACGCAGCCAAGUCCUAAGUCAACAGAUCUUCUGUUGAUAUGGAUGCAGUUCACAGACUAAAUGUCGGUCGGGGAAGAUGUAUUCUUCUCAUAAGAUAUAGUCGGACCUCUCCUUAAUGGGAGCUAGCGGAUGAAGUGAUGCAACACUGGAGCCGCUGGGAACUAAUUUGUAUGCGAAAGUAUAUUGAUUAGUUUUGGAGUACUCGUGGUCG
The method, boiled down: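 A randomised library covering all eight P1ex-region intron nucleotides was built with the intron in the knt kanamycin-resistance gene on pET-22b(+) and held in E. coli BL21(DE3). Cells were grown overnight at 37°C or 30°C on LB agar, with or without 25 μg/mL kanamycin, plus 100 μg/mL carbenicillin, 50 μM IPTG and 0.2% rhamnose, and pooled colonies were amplicon-sequenced on an Illumina HiSeq 2500. DiMSum fitness is the error-weighted combination of wild-type-normalised replicate fold changes, kanamycin versus none.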

± gives the uncertainty stated by the source.

As to GAGAAGCAAUAUUACGGCAU, the “self-splicing fitness (ln)” value is -0.391 ± 0.07 (30 °C) and 0.567 ± 0.11 (37 °C). On the same counts, the results for CUAUAGCAAUAUUACGGGCA are -3.19 ± 0.26 and -1.89 ± 0.18. On to AUGCAGCAAUAUUACGACCA, for which the “self-splicing fitness (ln)” value is -1.45 ± 0.17 (30 °C) and -0.579 ± 0.18 (37 °C).

With UAACAGCAAUAUUACGAUAU, the “self-splicing fitness (ln)” value (30 °C) is -2.28 ± 0.18 and the “self-splicing fitness (ln)” value (37 °C) is -1.28 ± 0.2. With AGCUAGCAAUAUUACGCAGU, the “self-splicing fitness (ln)” value is -2.97 ± 0.19 (30 °C) and -2.02 ± 0.26 (37 °C).

On to UCAGAGCAAUAUUACGGCGA, for which the “self-splicing fitness (ln)” value (30 °C) is -0.324 ± 0.072 and the “self-splicing fitness (ln)” value (37 °C) is -0.417 ± 0.076. For GUCUAGCAAUAUUACGAGGG the same measures were -3.1 ± 0.11 and -1.57 ± 0.09. Regarding UAAAAGCAAUAUUACGCCAG, the “self-splicing fitness (ln)” value is, setting by setting: (30 °C) -1.34 ± 0.12; (37 °C) -0.458 ± 0.17. On the same counts, the results for CUCCAGCAAUAUUACGACGU are -3.83 ± 0.21 and -2.01 ± 0.21. Turning to CGUCAGCAAUAUUACGCCUG, the “self-splicing fitness (ln)” value by setting is: (30 °C) -0.469 ± 0.099; (37 °C) 0.582 ± 0.12. On to AUCGAGCAAUAUUACGUGGA, for which the “self-splicing fitness (ln)” value is, setting by setting: (30 °C) -3.68 ± 0.37; (37 °C) -2.33 ± 0.22.

ACAAAGCAAUAUUACGUACA: the “self-splicing fitness (ln)” value runs as follows: (30 °C) -1.6 ± 0.083; (37 °C) -0.786 ± 0.089. On to UAUGAGCAAUAUUACGGAAG, for which the “self-splicing fitness (ln)” value is, setting by setting: (30 °C) -3.37 ± 0.37; (37 °C) -2.14 ± 0.36. For GAGAAGCAAUAUUACGGACU the same measures were -0.326 ± 0.091 and -0.101 ± 0.11. On the same counts, the results for UGCCAGCAAUAUUACGAAUA are -2.53 ± 0.16 and -0.828 ± 0.12.

For AAAGAGCAAUAUUACGUAAA, the “self-splicing fitness (ln)” value reads like this: (30 °C) -3.11 ± 0.15; (37 °C) -1.42 ± 0.13.

Take GGCUAGCAAUAUUACGUGGC: the “self-splicing fitness (ln)” value runs as follows: (30 °C) -2.66 ± 0.28; (37 °C) -1.23 ± 0.28. For the sequence GACGAGCAAUAUUACGAAAG, the “self-splicing fitness (ln)” value is -3.59 ± 0.43 (30 °C) and -1.53 ± 0.37 (37 °C).

CGUUAGCAAUAUUACGACCC: the “self-splicing fitness (ln)” value (30 °C) is -2.92 ± 0.43. GACAAGCAAUAUUACGCUGG: the “self-splicing fitness (ln)” value is -2.84 ± 0.14 (30 °C) and -1.97 ± 0.17 (37 °C). For CCCGAGCAAUAUUACGUAGA the same measures were -3.94 ± 0.3 and -2.92 ± 0.24. Turning to CUCAAGCAAUAUUACGCUAA, the “self-splicing fitness (ln)” value was -3.13 ± 0.2 (30 °C) and -2.96 ± 0.22 (37 °C).

Turning to GAUCAGCAAUAUUACGGUCA, the “self-splicing fitness (ln)” value (30 °C) was -1.6 ± 0.14 and the “self-splicing fitness (ln)” value (37 °C) was -0.459 ± 0.1.

As to CCAGAGCAAUAUUACGUUCC, the “self-splicing fitness (ln)” value runs as follows: (30 °C) -4.16 ± 0.31; (37 °C) -2.6 ± 0.44.

With GUCCAGCAAUAUUACGGAGU, the “self-splicing fitness (ln)” value is -0.181 ± 0.063 (30 °C) and -0.404 ± 0.084 (37 °C). For UCAUAGCAAUAUUACGCCAU the same measures were -3.49 ± 0.36 and -1.49 ± 0.33. For the sequence UUAGAGCAAUAUUACGACAU, the “self-splicing fitness (ln)” value is, setting by setting: (30 °C) -1.894 ± 0.018; (37 °C) -1.19 ± 0.036. Regarding UAAGAGCAAUAUUACGACUG, the “self-splicing fitness (ln)” value (30 °C) is -2 ± 0.14 and the “self-splicing fitness (ln)” value (37 °C) was -0.767 ± 0.15. Take AACUAGCAAUAUUACGGAAC: the “self-splicing fitness (ln)” value reads like this: (30 °C) -2.99 ± 0.21; (37 °C) -2.08 ± 0.3. In the case of CGCAAGCAAUAUUACGUCGA, the “self-splicing fitness (ln)” value is -2.24 ± 0.16 (30 °C) and -1.67 ± 0.14 (37 °C).

As for CUUCAGCAAUAUUACGGAUA, the “self-splicing fitness (ln)” value (30 °C) was -1.97 ± 0.12 and the “self-splicing fitness (ln)” value (37 °C) was -0.695 ± 0.11.

On to CUUAAGCAAUAUUACGAGGU, for which the “self-splicing fitness (ln)” value was -1.3 ± 0.14 (30 °C) and -3.09 ± 0.26 (37 °C). On the same counts, the results for UGAAAGCAAUAUUACGCAUA are -1.31 ± 0.098 and -0.274 ± 0.11. Turning to CCUUAGCAAUAUUACGGCAA, the “self-splicing fitness (ln)” value is, setting by setting: (30 °C) -3.57 ± 0.33; (37 °C) -2.54 ± 0.24. As to CAAUAGCAAUAUUACGAACC, the “self-splicing fitness (ln)” value (30 °C) is -2.22 ± 0.35.

As to UAAUAGCAAUAUUACGCAAA, the “self-splicing fitness (ln)” value (30 °C) was -2.03 ± 0.18 and the “self-splicing fitness (ln)” value (37 °C) is -1.27 ± 0.15.

With AUACAGCAAUAUUACGAUUC, the “self-splicing fitness (ln)” value is, setting by setting: (30 °C) -2.06 ± 0.1; (37 °C) -0.118 ± 0.096.
